{"source": "paper PMC4011729", "about": "“Inhibiting Heat Shock Factor 1 in Human Cancer Cells with a Potent RNA Aptamer”", "key": {"HSF1": {"target": "HSF1 (Homo sapiens, UniProt Q00613 1-529)", "sequence (Q00613 whole entry)": "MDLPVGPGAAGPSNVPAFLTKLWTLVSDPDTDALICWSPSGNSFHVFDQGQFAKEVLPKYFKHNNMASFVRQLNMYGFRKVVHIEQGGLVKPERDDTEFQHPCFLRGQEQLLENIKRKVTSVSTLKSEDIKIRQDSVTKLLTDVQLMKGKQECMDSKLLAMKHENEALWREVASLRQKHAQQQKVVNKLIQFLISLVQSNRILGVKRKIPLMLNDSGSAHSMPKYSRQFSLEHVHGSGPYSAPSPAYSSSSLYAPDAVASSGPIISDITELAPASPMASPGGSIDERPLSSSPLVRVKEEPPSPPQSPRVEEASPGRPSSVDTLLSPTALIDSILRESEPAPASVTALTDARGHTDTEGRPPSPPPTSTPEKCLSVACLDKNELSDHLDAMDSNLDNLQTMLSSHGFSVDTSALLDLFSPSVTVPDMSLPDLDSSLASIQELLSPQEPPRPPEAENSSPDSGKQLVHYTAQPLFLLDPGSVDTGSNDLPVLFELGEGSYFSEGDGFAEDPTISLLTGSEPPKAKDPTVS", "assay": "EMSA; apparent Kd, n = 5; 1 nM RNA; EMSA: 1X binding buffer (composition not given), 1 µg yeast RNA, 4 µg BSA, 5 mM DTT, 10% glycerol, 6 U SUPERase-In in 10 µl; room temperature 30 min then 4 C 10 min; 6-9% native gel, 1/4 TBE, 1 mM MgCl2, 4 C; pH not stated", "conditions": "protein: recombinant; tags: His; label: internal 32P-UTP; two aptamer units, 5' and 3' ends protected"}, "HSF2": {"target": "HSF2 (Homo sapiens, UniProt Q03933 1-536)", "sequence (Q03933 whole entry)": "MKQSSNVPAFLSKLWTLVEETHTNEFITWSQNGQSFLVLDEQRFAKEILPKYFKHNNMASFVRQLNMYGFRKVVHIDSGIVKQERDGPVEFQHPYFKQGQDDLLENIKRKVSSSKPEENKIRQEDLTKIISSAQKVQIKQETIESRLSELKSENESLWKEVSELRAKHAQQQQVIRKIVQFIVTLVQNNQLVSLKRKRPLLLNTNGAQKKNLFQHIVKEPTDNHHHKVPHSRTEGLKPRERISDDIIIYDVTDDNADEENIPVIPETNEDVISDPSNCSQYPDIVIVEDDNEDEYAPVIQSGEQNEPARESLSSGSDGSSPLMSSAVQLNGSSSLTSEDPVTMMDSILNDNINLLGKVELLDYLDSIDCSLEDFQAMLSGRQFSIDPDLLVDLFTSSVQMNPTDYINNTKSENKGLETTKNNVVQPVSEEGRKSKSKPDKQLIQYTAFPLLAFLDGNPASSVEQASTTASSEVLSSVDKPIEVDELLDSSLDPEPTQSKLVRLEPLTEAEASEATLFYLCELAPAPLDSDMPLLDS", "assay": "EMSA; apparent affinity from % shifted complex; 1 nM RNA; EMSA: 1X binding buffer (composition not given), 1 µg yeast RNA, 4 µg BSA, 5 mM DTT, 10% glycerol, 6 U SUPERase-In in 10 µl; room temperature 30 min then 4 C 10 min; 6-9% native gel, 1/4 TBE, 1 mM MgCl2, 4 C; pH not stated", "conditions": "protein: recombinant; tags: His; label: internal 32P-UTP; two aptamer units, 5' and 3' ends protected"}}}
{"binder": "iaRNAHSF1 (structured_RNA) RNA: GUCGAGUGACGUUGGCAUCGCGAUACAAAAUUAAGUUGAACGCGAGUUCUUCGGAAUUCAACUGCCUUCGUCAUACUCCUUGAAUUCAACUGCCUUCGGGCAUCGCGAUACAAAAUUAAGUUGAACGCGAGUUCUUGGAGGCUCGACGUCUAGCGAUGUGGUUUCGCUACUGAUGAGUCCGUGAGGACGAAAC", "values": [{"measurement": "Kd", "setting": "HSF1", "result": "~25", "unit": "nM"}, {"measurement": "Kd", "setting": "HSF2", "result": "~141", "unit": "nM"}]}
